Laboratory results: patent US20200079833A1 (AstraZeneca / MedImmune, published 2020)
Starred links: 1 amine or outer side, 2 acyl side, 3 side chain; linkers in the order of their positions; H or OH if unused. Non-standard residues stand in square brackets, D forms with d. Groups on a side chain read outwards from the residue. Primed or numbered codes have the meaning given here. No end group written: not given here. *: point of attachment. γGlu = O=C(O)[C@H](CCC(=O)[*:2])N[*:1]; Palmitoyl = CCCCCCCCCCCCCCCC(=O)*; αMeF = C[C@](N)(Cc1ccccc1)C(=O)O; αMeK = C[C@](N)(CCCCN)C(=O)O; Lauroyl = CCCCCCCCCCCC(=O)*; αMeS = C[C@](N)(CO)C(=O)O; PEG2′ = not defined here; Aib = CC(C)(N)C(=O)O

T1: glucose-dependent insulinotropic peptide (gastric inhibitory polypeptide) receptor (GIPR), primary cAMP assay (human, UniProt P48546 22-466)
T1 sequence (looked up): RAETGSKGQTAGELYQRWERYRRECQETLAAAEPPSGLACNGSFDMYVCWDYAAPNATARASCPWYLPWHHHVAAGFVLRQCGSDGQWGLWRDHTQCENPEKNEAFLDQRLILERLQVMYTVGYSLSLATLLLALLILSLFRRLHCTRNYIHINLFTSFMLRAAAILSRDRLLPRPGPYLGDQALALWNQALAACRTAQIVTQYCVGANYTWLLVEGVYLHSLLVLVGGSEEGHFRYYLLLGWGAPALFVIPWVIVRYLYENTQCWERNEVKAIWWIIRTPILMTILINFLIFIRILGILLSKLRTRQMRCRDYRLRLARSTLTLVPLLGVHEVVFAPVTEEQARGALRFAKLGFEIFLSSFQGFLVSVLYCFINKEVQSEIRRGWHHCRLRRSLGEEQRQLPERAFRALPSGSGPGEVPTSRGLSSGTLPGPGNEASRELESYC

T2: GLP-1R in the INS1e assay (UniProt P32301 22-463, limits assumed)
T2 sequence (looked up): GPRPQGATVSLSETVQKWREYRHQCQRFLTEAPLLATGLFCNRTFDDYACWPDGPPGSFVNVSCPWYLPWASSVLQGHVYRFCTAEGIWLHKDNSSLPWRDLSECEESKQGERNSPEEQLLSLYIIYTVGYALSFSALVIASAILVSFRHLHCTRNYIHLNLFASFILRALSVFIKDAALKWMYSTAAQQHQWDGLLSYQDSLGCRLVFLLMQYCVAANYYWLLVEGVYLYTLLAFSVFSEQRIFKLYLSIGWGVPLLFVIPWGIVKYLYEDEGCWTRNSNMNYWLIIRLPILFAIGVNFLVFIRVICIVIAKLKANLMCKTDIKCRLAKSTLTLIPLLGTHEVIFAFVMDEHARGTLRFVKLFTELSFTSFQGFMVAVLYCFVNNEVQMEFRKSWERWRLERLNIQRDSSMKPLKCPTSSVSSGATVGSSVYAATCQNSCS


Molecular target: T1, glucose-dependent insulinotropic …
Experiment: cell-based or functional assay

Row | Primary assay EC50 (cAMP), n1 [nM] | Primary assay EC50 (cAMP), n2 [nM] | Binder
1 | 21.6 | 21.6 | H[Aib]EGTFTSDVSK([PEG2′-PEG2′-γGlu-Palmitoyl])YLEGEAAEEFIK([PEG2′-PEG2′-γGlu-Palmitoyl])FVVEGG-NH2 [SEQ ID NO: 244]
2 | 21.4 | 21.4 | H[Aib]EGS[αMeF]TSDK([PEG2′-PEG2′-γGlu-Palmitoyl])SSYLEGEAA[αMeK]EFIK([PEG2′-PEG2′-γGlu-Palmitoyl])WVVEGG-NH2 [SEQ ID NO: 259]
3 | 22.3 | 22.3 | H[Aib]EGTFTSDVSK([PEG2′-PEG2′-γGlu-Lauroyl])FLEGEAAEEFIK([PEG2′-PEG2′-γGlu-Lauroyl])WVVEGG-NH2 [SEQ ID NO: 237]
4 | 21.6 | 21.6 | H[Aib]EGTFTSDVSK([PEG2′-PEG2′-γGlu-Palmitoyl])FLEGEAAEEFIK([PEG2′-PEG2′-γGlu-Palmitoyl])FVVEGG-NH2 [SEQ ID NO: 245]
5 | 21.7 | 21.7 | H[Aib]EGS[αMeF]TSDV[αMeS]SK([PEG2′-PEG2′-γGlu-Palmitoyl])LEGEAA[αMeK]EFIAWK([PEG2′-PEG2′-γGlu-Palmitoyl])VEGG-NH2 [SEQ ID NO: 267]
6 | 21.5 | 21.5 | H[Aib]EGS[αMeF]TSDVSK([PEG2′-PEG2′-γGlu-Palmitoyl])YLEGEAA[αMeK]EFIAWK([PEG2′-PEG2′-γGlu-Palmitoyl])VEGG-NH2 [SEQ ID NO: 255]
7 | 21.9 | 21.9 | H[Aib]EGS[αMeF]TSDVSK([PEG2′-PEG2′-γGlu-Palmitoyl])YLEGEAA[αMeK]EFIAK([PEG2′-PEG2′-γGlu-Palmitoyl])VVEGG-NH2 [SEQ ID NO: 254]
8 | 23 | 23 | H[Aib]EGS[αMeF]TSDK([PEG2′-PEG2′-γGlu-Palmitoyl])SSYLEGEAA[αMeK]EFIAWK([PEG2′-PEG2′-γGlu-Palmitoyl])VEGG-NH2 [SEQ ID NO: 261]
9 | 21.4 | 21.4 | H[Aib]EGS[αMeF]TSDV[αMeS]SYK([PEG2′-PEG2′-γGlu-Palmitoyl])EGEAA[αMeK]EFIK([PEG2′-PEG2′-γGlu-Palmitoyl])WVVEGG-NH2 [SEQ ID NO: 271]

Molecular target: GLP-1 receptor (GLP-1R), primary cAMP assay (human, UniProt P43220 24-463)
Experiment: cell-based or functional assay

Row | Primary assay EC50 (cAMP) Mean [nM] | Primary assay EC50 (cAMP), n1 [nM] | Primary assay EC50 (cAMP), n2 [nM] | Binder
10 | 12.3 | 7.77 | 16.9 | H[Aib]EGTFTSDVSK([PEG2′-PEG2′-γGlu-Palmitoyl])YLEGEAAEEFIK([PEG2′-PEG2′-γGlu-Palmitoyl])FVVEGG-NH2 [SEQ ID NO: 244]
11 | 0.313 | 0.339 | 0.287 | H[Aib]EGS[αMeF]TSDK([PEG2′-PEG2′-γGlu-Palmitoyl])SSYLEGEAA[αMeK]EFIK([PEG2′-PEG2′-γGlu-Palmitoyl])WVVEGG-NH2 [SEQ ID NO: 259]
12 | 0.0209 | 0.0195 | 0.0223 | H[Aib]EGTFTSDVSK([PEG2′-PEG2′-γGlu-Lauroyl])FLEGEAAEEFIK([PEG2′-PEG2′-γGlu-Lauroyl])WVVEGG-NH2 [SEQ ID NO: 237]
13 | 11.2 | 12.3 | 10.2 | H[Aib]EGTFTSDVSK([PEG2′-PEG2′-γGlu-Palmitoyl])FLEGEAAEEFIK([PEG2′-PEG2′-γGlu-Palmitoyl])FVVEGG-NH2 [SEQ ID NO: 245]
14 | 0.569 | 0.628 | 0.51 | H[Aib]EGS[αMeF]TSDV[αMeS]SK([PEG2′-PEG2′-γGlu-Palmitoyl])LEGEAA[αMeK]EFIAWK([PEG2′-PEG2′-γGlu-Palmitoyl])VEGG-NH2 [SEQ ID NO: 267]
15 | 0.463 | 0.532 | 0.393 | H[Aib]EGS[αMeF]TSDVSK([PEG2′-PEG2′-γGlu-Palmitoyl])YLEGEAA[αMeK]EFIAWK([PEG2′-PEG2′-γGlu-Palmitoyl])VEGG-NH2 [SEQ ID NO: 255]
16 | 0.205 | 0.223 | 0.186 | H[Aib]EGS[αMeF]TSDVSK([PEG2′-PEG2′-γGlu-Palmitoyl])YLEGEAA[αMeK]EFIAK([PEG2′-PEG2′-γGlu-Palmitoyl])VVEGG-NH2 [SEQ ID NO: 254]
17 | 0.418 | 0.414 | 0.422 | H[Aib]EGS[αMeF]TSDK([PEG2′-PEG2′-γGlu-Palmitoyl])SSYLEGEAA[αMeK]EFIAWK([PEG2′-PEG2′-γGlu-Palmitoyl])VEGG-NH2 [SEQ ID NO: 261]
18 | 0.821 | 0.891 | 0.75 | H[Aib]EGS[αMeF]TSDV[αMeS]SYK([PEG2′-PEG2′-γGlu-Palmitoyl])EGEAA[αMeK]EFIK([PEG2′-PEG2′-γGlu-Palmitoyl])WVVEGG-NH2 [SEQ ID NO: 271]

Molecular target: glucagon receptor (GCGR), primary cAMP assay (human, UniProt P47871 26-477)
Sequence (P47871 26-477): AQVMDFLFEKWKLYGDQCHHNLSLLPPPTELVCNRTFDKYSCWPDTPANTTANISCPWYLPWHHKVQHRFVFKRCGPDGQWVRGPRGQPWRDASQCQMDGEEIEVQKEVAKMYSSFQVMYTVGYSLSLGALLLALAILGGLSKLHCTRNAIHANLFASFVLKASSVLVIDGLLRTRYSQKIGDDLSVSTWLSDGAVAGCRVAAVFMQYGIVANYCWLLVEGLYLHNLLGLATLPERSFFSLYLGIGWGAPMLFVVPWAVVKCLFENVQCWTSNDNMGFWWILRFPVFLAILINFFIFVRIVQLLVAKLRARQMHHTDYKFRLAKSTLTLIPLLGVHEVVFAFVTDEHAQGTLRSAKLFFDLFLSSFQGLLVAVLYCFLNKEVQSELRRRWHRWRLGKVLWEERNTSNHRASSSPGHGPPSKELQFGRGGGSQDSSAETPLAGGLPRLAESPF
Experiment: cell-based or functional assay

Row | Primary assay EC50 (cAMP), n1 [nM] | Primary assay EC50 (cAMP), n2 [nM] | Binder
19 | 21.6 | 21.6 | H[Aib]EGTFTSDVSK([PEG2′-PEG2′-γGlu-Palmitoyl])YLEGEAAEEFIK([PEG2′-PEG2′-γGlu-Palmitoyl])FVVEGG-NH2 [SEQ ID NO: 244]
20 | 21.4 | 21.4 | H[Aib]EGS[αMeF]TSDK([PEG2′-PEG2′-γGlu-Palmitoyl])SSYLEGEAA[αMeK]EFIK([PEG2′-PEG2′-γGlu-Palmitoyl])WVVEGG-NH2 [SEQ ID NO: 259]
21 | 22.3 | 22.3 | H[Aib]EGTFTSDVSK([PEG2′-PEG2′-γGlu-Lauroyl])FLEGEAAEEFIK([PEG2′-PEG2′-γGlu-Lauroyl])WVVEGG-NH2 [SEQ ID NO: 237]
22 | 21.6 | 21.6 | H[Aib]EGTFTSDVSK([PEG2′-PEG2′-γGlu-Palmitoyl])FLEGEAAEEFIK([PEG2′-PEG2′-γGlu-Palmitoyl])FVVEGG-NH2 [SEQ ID NO: 245]
23 | 21.7 | 21.7 | H[Aib]EGS[αMeF]TSDV[αMeS]SK([PEG2′-PEG2′-γGlu-Palmitoyl])LEGEAA[αMeK]EFIAWK([PEG2′-PEG2′-γGlu-Palmitoyl])VEGG-NH2 [SEQ ID NO: 267]
24 | 21.5 | 21.5 | H[Aib]EGS[αMeF]TSDVSK([PEG2′-PEG2′-γGlu-Palmitoyl])YLEGEAA[αMeK]EFIAWK([PEG2′-PEG2′-γGlu-Palmitoyl])VEGG-NH2 [SEQ ID NO: 255]
25 | 21.9 | 21.9 | H[Aib]EGS[αMeF]TSDVSK([PEG2′-PEG2′-γGlu-Palmitoyl])YLEGEAA[αMeK]EFIAK([PEG2′-PEG2′-γGlu-Palmitoyl])VVEGG-NH2 [SEQ ID NO: 254]
26 | 23 | 23 | H[Aib]EGS[αMeF]TSDK([PEG2′-PEG2′-γGlu-Palmitoyl])SSYLEGEAA[αMeK]EFIAWK([PEG2′-PEG2′-γGlu-Palmitoyl])VEGG-NH2 [SEQ ID NO: 261]
27 | 21.4 | 21.4 | H[Aib]EGS[αMeF]TSDV[αMeS]SYK([PEG2′-PEG2′-γGlu-Palmitoyl])EGEAA[αMeK]EFIK([PEG2′-PEG2′-γGlu-Palmitoyl])WVVEGG-NH2 [SEQ ID NO: 271]

Molecular target: T2, GLP-1R in the INS1e assay
Experiment: cell-based or functional assay

Row | INS1e assay EC50 (cAMP) Mean [nM] | INS1e assay EC50 (cAMP) n1 [nM] | INS1e assay EC50 (cAMP) n2 [nM] | Binder
28 | 19.3 | 14.3 | 24.3 | H[Aib]EGTFTSDVSK([PEG2′-PEG2′-γGlu-Lauroyl])FLEGEAAEEFIK([PEG2′-PEG2′-γGlu-Lauroyl])WVVEGG-NH2 [SEQ ID NO: 237]
